Values quoted from earlier work in article PMC9092467.

Columns and labels:
His32 = His32 (UniProt position 32, FGDVNHTNGNV); assay: NMR
His83 = His83 (UniProt position 83, FNEPAHTLYGQ); assay: NMR
[1] = apoprotein (no haem or haem analogue bound)
[2] = holoprotein with gallium protoporphyrin IX, Ga(PPIX), bound

Haem acquisition system protein A (hemophore HasA) (Serratia marcescens)
pKa (His32; [1]): 7.3 | pKa (His32; [2]): <4.8 | pKa (His83; [1]): 5.6 | pKa (His83; [2]): 9.7
